Substitutions are numbered along the chain they refer to. Numbers in names are those of the source. Read-outs that look alike come from different tables or passages of the source.

Assay [1] concerns the target T1, mouse FcγRI (mouse, UniProt P26151 25-297).
T1 construct: bought; also called mFcgRI; mFcgR 1
T1 sequence (looked up): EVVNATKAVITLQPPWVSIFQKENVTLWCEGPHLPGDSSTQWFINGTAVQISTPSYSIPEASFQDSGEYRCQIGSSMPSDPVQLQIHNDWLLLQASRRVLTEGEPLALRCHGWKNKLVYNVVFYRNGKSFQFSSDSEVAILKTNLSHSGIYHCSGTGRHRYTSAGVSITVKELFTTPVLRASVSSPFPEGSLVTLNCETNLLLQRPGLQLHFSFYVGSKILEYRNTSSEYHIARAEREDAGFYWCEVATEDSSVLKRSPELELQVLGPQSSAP
Briefly: SPR (Biacore T100/T200): FcγR injected over the antibody held by mouse FcRn immobilised on a CM4 chip, pH 7.4, 25 C.

Assay [2] concerns the target T2, mouse FcγRIV (mouse, UniProt A0A0B4J1G0 21-203).
T2 construct: bought; also called mFcgRIV; mFcgR IV; the vendor's purification tag not given
T2 sequence: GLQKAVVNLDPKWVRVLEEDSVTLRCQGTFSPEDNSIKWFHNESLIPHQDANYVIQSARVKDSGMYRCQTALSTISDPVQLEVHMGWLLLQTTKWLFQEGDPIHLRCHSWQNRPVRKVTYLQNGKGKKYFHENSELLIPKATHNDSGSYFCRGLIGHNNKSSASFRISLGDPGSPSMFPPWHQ
The assay is described as above.

Assay [3] addresses T3, mouse FcγRIIb (mouse, UniProt P08101 30-207, limits assumed).
T3 construct: bought; also called mFcgRIIb; mFcgR IIb
T3 sequence (looked up): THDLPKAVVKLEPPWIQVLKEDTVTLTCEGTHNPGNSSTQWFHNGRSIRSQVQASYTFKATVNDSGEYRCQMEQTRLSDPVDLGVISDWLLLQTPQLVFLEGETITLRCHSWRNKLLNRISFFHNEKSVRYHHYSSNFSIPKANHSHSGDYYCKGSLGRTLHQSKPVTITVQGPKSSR
Kind of assay: SPR (Biacore T100/T200): FcγR injected over the antibody held by mouse FcRn immobilised on a CM4 chip (simultaneous binding), pH 7.4, 25 C. (In SPR one partner is held on a chip, and binding of the other changes the refractive index at the surface.)

Assay [4] has as its target T4, mouse FcγRIII (mouse, UniProt P08508 31-215).
T4 construct: bought; also called mFcgRIII; mFcgR III
T4 sequence (looked up): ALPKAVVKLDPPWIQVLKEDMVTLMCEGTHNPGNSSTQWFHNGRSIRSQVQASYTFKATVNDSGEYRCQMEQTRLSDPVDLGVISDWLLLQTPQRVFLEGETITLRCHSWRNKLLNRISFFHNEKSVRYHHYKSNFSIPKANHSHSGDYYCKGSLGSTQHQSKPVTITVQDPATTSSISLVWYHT
The description is as above.

The target of assay [5] is T5, human FcRn (soluble human FcRn complexed with β2-microglobulin) (human, UniProt P61769 21-119, limits assumed).
T5 construct: also called hFcRn
Briefly: SPR, antibody captured by Protein L, human FcRn as analyte, pH 7.0, 25 C.

The target in assay [6] is T1, mouse FcγRI. Kind of assay: SPR, antibody captured by Protein L, mouse FcγR as analyte, pH 7.4, 25 C.
In assay [7] the target is T3, mouse FcγRIIb. The assay is described as above.
The target of assay [8] is T4, mouse FcγRIII. Described as above.
The target in assay [9] is T2, mouse FcγRIV. The assay is described as above.
Assay [10] addresses T5, human FcRn (soluble human FcRn …). Kind of assay: SPR, antibody captured by Protein L, human FcRn as analyte, pH 7.0, 25 C. This is another data set of the same source.
The target in assay [11] is T6, human FcγRIIb (human, UniProt P31994 43-217, limits assumed).
T6 construct: also called hFcgRIIb; FcγIIB
T6 sequence: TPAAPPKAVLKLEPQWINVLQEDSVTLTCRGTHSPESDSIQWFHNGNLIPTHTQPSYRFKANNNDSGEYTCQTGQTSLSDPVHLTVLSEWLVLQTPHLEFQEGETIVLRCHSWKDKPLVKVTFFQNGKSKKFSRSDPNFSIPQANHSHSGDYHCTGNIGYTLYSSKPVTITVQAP
Kind of assay: SPR, antibody captured by Protein L, human FcγR as analyte, pH 7.4, 25 C.

Assay [12] concerns the target T7, human FcγRIa (human, UniProt P12314 16-292, limits assumed).
T7 construct: also called hFcgRIa; hFcgRI
The assay is described as above.

In assay [13] the target is T8, human FcγRIIa(R) (human, UniProt P12318 36-217).
T8 construct: also called hFcgRIIa(R); FcγRIIa type R
T8 chain: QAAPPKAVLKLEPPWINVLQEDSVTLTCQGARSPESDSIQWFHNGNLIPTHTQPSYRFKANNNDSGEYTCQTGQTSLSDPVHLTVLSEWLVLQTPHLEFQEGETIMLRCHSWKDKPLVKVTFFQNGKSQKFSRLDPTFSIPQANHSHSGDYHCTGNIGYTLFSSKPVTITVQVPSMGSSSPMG
Described as above.

The target in assay [14] is T9, human FcγRIIa(H) (human, UniProt P12318 36-217).
T9 construct: also called hFcgRIIa(H); FcγRIIa type H
T9 sequence: T8 chain with R133H
Described as above.

For assay [15], the target named is T10, human FcRn (complex with human β2-microglobulin) (human, UniProt P61769 21-119, limits assumed).
T10 construct: soluble human FcRn complexed with β2-microglobulin was used; also called hFcRn
Briefly: hFcRn KD, method not given.

Assay [16] deals with T5, human FcRn (soluble human FcRn …). Kind of assay: SPR, antibody captured by Protein L, human FcRn as analyte, pH 7.0, 25 C. The source holds these as a separate data set.
Assay [17] addresses T6, human FcγRIIb. Kind of assay: SPR, antibody captured by Protein L, human FcγR as analyte, pH 7.4, 25 C. The source holds these as a separate data set.
In assay [18] the target is T7, human FcγRIa. The description is as above. The source holds these as a separate data set.
In assay [19] the target is T8, human FcγRIIa(R). The description is as above.
Assay [20] deals with T9, human FcγRIIa(H). The description is as above. This is another data set of the same source.
Assay [21] has as its target T5, human FcRn (soluble human FcRn …). Kind of assay: SPR, antibody captured by Protein L, human FcRn as analyte, pH 7.0, 25 C. The source holds these as a separate data set.
For assay [22], the target named is T6, human FcγRIIb. Briefly: SPR, antibody captured by Protein L, human FcγR as analyte, pH 7.4, 25 C. This is another data set of the same source.
Assay [23] deals with T7, human FcγRIa. The description is as above. The source holds these as a separate data set.
Assay [24] addresses T8, human FcγRIIa(R). The assay is described as above.
In assay [25] the target is T9, human FcγRIIa(H). The assay is described as above. This is another data set of the same source.
Assay [26] has as its target T11, human FcγRIIa(R) (human, UniProt P12318 36-217).
T11 construct: also called FcgRIIaR; hFcgRIIa(R)
T11 chain: T8 chain
Briefly: SPR, pH 7.4, antibody captured by Protein L.

In assay [27] the target is T12, human FcγRIIb (human, UniProt P31994 43-217, limits assumed).
T12 construct: also called FcgRIIb; hFcgRIIb
T12 sequence: T6 sequence
Kind of assay: SPR, pH 7.4, antibody captured by Protein L.

T5 sequence (chain, as listed by the source limits assumed, chain 1 of 2): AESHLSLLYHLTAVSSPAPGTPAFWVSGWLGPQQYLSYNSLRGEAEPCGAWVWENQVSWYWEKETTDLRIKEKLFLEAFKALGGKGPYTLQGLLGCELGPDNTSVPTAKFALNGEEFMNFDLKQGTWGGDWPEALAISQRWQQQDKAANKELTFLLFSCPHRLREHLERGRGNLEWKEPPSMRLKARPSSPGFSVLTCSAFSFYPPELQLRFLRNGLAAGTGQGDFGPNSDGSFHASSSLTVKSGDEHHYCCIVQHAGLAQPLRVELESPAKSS
T5 sequence (P61769 21-119 limits assumed, chain 2 of 2): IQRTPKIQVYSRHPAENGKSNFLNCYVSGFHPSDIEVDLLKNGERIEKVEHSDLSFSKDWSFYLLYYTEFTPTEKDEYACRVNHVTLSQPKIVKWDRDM
T7 sequence (P12314 16-292 limits assumed): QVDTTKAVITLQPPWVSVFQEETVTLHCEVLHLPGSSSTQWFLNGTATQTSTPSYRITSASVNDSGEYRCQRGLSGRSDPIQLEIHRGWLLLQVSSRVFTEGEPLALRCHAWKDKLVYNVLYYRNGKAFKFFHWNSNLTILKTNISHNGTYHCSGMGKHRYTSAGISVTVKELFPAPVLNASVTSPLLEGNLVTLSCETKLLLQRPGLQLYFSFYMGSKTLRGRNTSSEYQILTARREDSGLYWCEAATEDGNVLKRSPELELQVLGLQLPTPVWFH
T10 sequence (chain, as listed by the source limits assumed, chain 1 of 2): as the sequence (chain, as listed by the source limits assumed, chain 1 of 2) above
T10 sequence (P61769 21-119 limits assumed, chain 2 of 2): as the sequence (P61769 21-119 limits assumed, chain 2 of 2) above

B1: mPM1-mIgG1-mF3 (mPM1H-mIgG1-mF3 and mPM1L-mk1) (antibody)
heavy: DVQLQESGPVLVKPSQSLSLTCTVTGYSITSDHAWSWIRQFPGNKLEWMGYISYSGITTYNPSLKSRISITRDTSKNQFFLQLNSVTTGDTSTYYCARSLARTTAMDYWGQGTSVTVSSAKTTPPSVYPLAPGSAAQTNSMVTLGCLVKGYFPEPVTVTWNSGSLSSGVHTFPAVLQSDLYTLSSSVTVPSSTWPSETVTCNVAHPASSTKVDKKIVPRDCGCKPCICTVPEVSSVFIFPPKPKDVLYITLEPKVTCVVVDISKDDPEVQFSWFVDDVEVHTAQTQPREEQFNSTFRSVSELPIMHQDWLNGKEFKCRVNSAAFPAPIEKTISKTKGRPKAPQVYTIPPPKEQMAKDKVSLTCMITDFFPEDITVEWQWNGQPAENYKNTQPIMDTDGSYFVYSKLNVQKSNWEAGNTFTCSVLHEGLKFHHTEKSLSHSPGK
light: DIQMTQTTSSLSASLGDRVTISCRASQDISSYLNWYQQKPDGTIKLLIYYTSRLHSGVPSRFSGSGSGTDYSLTINNLEQEDIATYFCQQGNTLPYTFGGGTKLEIKRADAAPTVSIFPPSSEQLTSGGASVVCFLNNFYPKDINVKWKIDGSERQNGVLNSWTDQDSKDSTYSMSSTLTLTKDEYERHNSYTCEATHKTSTSPIVKSFNRNEC
notes: copies: 2 + 2
For B1, the binding result is “no binding” in the assay with mouse FcγRI [1], “no binding” in the assay with mouse FcγRIV [2], “binds” with mouse FcγRIIb [3] and “binds” with mouse FcγRIII [4].

B2: VH3/L(WT)-IgG1-F21 (VH3-IgG1-F21 heavy chain, L(WT)-CK light chain) (antibody)
heavy: QVQLQESGPGLVKPSETLSLTCAVSGHSISHDHAWSWVRQPPGEGLEWIGFISYSGITNYNPSLQGRVTISRDNSKNTLYLQMNSLRAEDTAVYYCARSLARTTAMDYWGEGTLVTVSSASTKGPSVFPLAPSSKSTSGGTAALGCLVKDYFPEPVTVSWNSGALTSGVHTFPAVLQSSGLYSLSSVVTVPSSSLGTQTYICNVNHKPSNTKVDKKVEPKSCDKTHTCPPCPAPELLGGPSVFLFPPKPKDTLYISRTPEVTCVVVDVSHEDPEVKFNWYVDGVEVHNAKTKPREEQYNSTYRVVSVLTPLHQDWLNGKEYKCKVSNKALPAPIEKTISKAKGQPREPQVYTLPPSRDELTKNQVSLTCLVKGFYPSDIAVEWESNGQPENNYKTTPPVLDSDGSFFLYSKLTVDKSRWQQGNVFSCSVMHEALHYHYTQKSLSLSP
light: not shown
notes: M252Y/V308P/N434Y; copies: 2 + 2
As for B2, the Kd in assay [5] and in [10] was 30 nM in each case. The “BINDING AMOUNT (RU)” value worked out at 315 RU with mouse FcγRI [6]; 112 RU with mouse FcγRIIb [7]; 371 RU with mouse FcγRIII [8]; 242 RU with mouse FcγRIV [9]; 63.4 RU in the assay with human FcγRIIb [11]; 403 RU in the assay with human FcγRIa [12]. The “BINDING AMOUNT (RU)” value turned out to be 145 RU with human FcγRIIa(R) [13] and 154 RU with human FcγRIIa(H) [14].

B3: antibody with heavy chain VH3-IgG1-FA6a (Heavy Chain A) (antibody)
heavy: B2 heavy with T252V, T309Q, Q313A, D358K, E359K, Y438V
light: not shown
notes: T250V/M252Y/T307Q/V308P/Q311A/D356K/E357K/N434Y/Y436V
With B3, in [15], binding was put at a Kd of 11 nM. This lies in the double-digit nanomolar range.

B4: VH3/L(WT)-IgG1-F698 (antibody, name in EU numbering)
heavy: B2 heavy with N288E, T309Q, P310V, Q313A
light: not shown
notes: copies: 2 + 2
In the case of B4, the Kd in assay [16] and in assay [21] was 22 nM in each case. Further, the “BINDING AMOUNT (RU)” value is 42.1 RU with human FcγRIIb [17]; 392 RU with human FcγRIa [18]; 117 RU with human FcγRIIa(R) [19]; 116 RU with human FcγRIIa(H) [20]; 42.1 RU with human FcγRIIb [22]; 392 RU in the assay with human FcγRIa [23]. In addition, the results for the “BINDING AMOUNT (RU)” value with human FcγRIIa(R) [24] and in the assay with human FcγRIIa(H) [25] were 117 RU and 116 RU, respectively.

B5: VH3-IgG1-F652/L(WT)-CK (antibody)
heavy: B2 heavy with P240D, P310V
light: not shown
notes: P238D in VH3-IgG1-F11; copies: 2 + 2
As to B5, the binding amount in the assay with human FcγRIIa(R) [26] was found to be 9.1 RU; in the assay with human FcγRIIb [27], 64 RU.

By Kd is commonly meant the equilibrium constant for the complex coming apart. A low value points to higher affinity.

Values taken from patent US20200199241A1 (Chugai, published 2020).
